Reference: PMC6355003, “New interfaces on MiD51 for Drp1 recruitment and regulation” (PLoS ONE, 2019)
Substitutions are numbered along the chain they refer to. Names may count otherwise.

B1: Drp1 (dynamin-related protein Drp1), wild type (natural protein, UniProt O00429-4 1-699, looked up)
chain: MEALIPVINKLQDVFNTVGADIIQLPQIVVVGTQSSGKSSVLESLVGRDLLPRGTGIVTRRPLILQLVHVSQEDKRKTTGEENGVEAEEWGKFLHTKNKLYTDFDEIRQEIENETERISGNNKGVSPEPIHLKIFSPNVVNLTLVDLPGMTKVPVGDQPKDIELQIRELILRFISNPNSIILAVTAANTDMATSEALKISREVDPDGRRTLAVITKLDLMDAGTDAMDVLMGRVIPVKLGIIGVVNRSQLDINNKKSVTDSIRDEYAFLQKKYPSLANRNGTKYLARTLNRLLMHHIRDCLPELKTRINVLAAQYQSLLNSYGEPVDDKSATLLQLITKFATEYCNTIEGTAKYIETSELCGGARICYIFHETFGRTLESVDPLGGLNTIDILTAIRNATGPRPALFVPEVSFELLVKRQIKRLEEPSLRCVELVHEEMQRIIQHCSNYSTQELLRFPKLHDAIVEVVTCLLRKRLPVTNEMVHNLVAIELAYINTKHPDFADACGLMNNNIEEQRRNRLARELPSAVSRDKVASGGGGVGDGVQEPTTGNWRGMLKTSKAEELLAEEKSKPIPIMPASPQKGHAVNLLDVPVPVARKLSAREQRDCEVIERLIKSYFLIVRKNIQDSVPKAVMHFLVNHVKDTLQSELVGQLYKSSLLDDLLTESEDMAQRRKEAADMLKALQGASQIIAEIRETHLW
notes: Drp1, GenBank NM_005690; also called wild-type Drp1; source: E. coli Rosseta (DE3), purified (Ni-NTA, anion exchange, size-exclusion chromatography)
B2: Drp1 S579D (natural protein, UniProt O00429-4 1-699, looked up)
chain: B1 chain with S579D
notes: Drp1, GenBank NM_005690; S579 is S616 in Drp1 isoform 1 (printed); also called phosphorylation site mutant (related to S616 in Drp1 isoform 1); source: E. coli Rosseta (DE3), purified (Ni-NTA, anion exchange, size-exclusion chromatography)
B3: Drp1 K38A (natural protein, UniProt O00429-4 1-699, looked up)
chain: B1 chain with K38A
notes: Drp1, GenBank NM_005690; also called K38A mutant of Drp1; dominant-negative GTPase mutation K38A; source: E. coli Rosseta (DE3), purified (Ni-NTA, anion exchange, size-exclusion chromatography)
B4: GST-MiD51^133-463, wild type (domain or fragment, human, UniProt Q9NQG6-1 133-463, looked up)
chain: MSLQEKLLTYYRNRAAIPAGEQARAKQAAVDICAELRSFLRAKLPDMPLRDMYLSGSLYDDLQVVTADHIQLIVPLVLEQNLWSCIPGEDTIMNVPGFFLVRRENPEYFPRGSSYWDRCVVGGYLSPKTVADTFEKVVAGSINWPAIGSLLDYVIRPAPPPEALTLEVQYERDKHLFIDFLPSVTLGDTVLVAKPHRLAQYDNLWRLSLRPAETARLRALDQADSGCRSLCLKILKAICKSTPALGHLTASQLTNVILHLAQEEADWSPDMLADRFLQALRGLISYLEAGVLPSALNPKVNLFAELTPEEIDELGYTLYCSLSEPEVLLQT
notes: also called cytosolic domain of MiD51; source: E. coli BL21 (DE3), purified (Glutathione Sepharose, eluted with reduced glutathione)
B5: Drp1 S600D (natural protein, UniProt O00429-4 1-699, looked up)
chain: B1 chain with S600D
notes: Drp1, GenBank NM_005690; S600 is S637 in Drp1 isoform 1 (printed); also called phosphorylation site mutant (related to S637 in Drp1 isoform 1); source: E. coli Rosseta (DE3), purified (Ni-NTA, anion exchange, size-exclusion chromatography)
B6: MiD51^133-463, wild type (protein of the dimerization assays) (domain or fragment, human, UniProt Q9NQG6-1 133-463, looked up)
chain: B4 chain
notes: the His tag is called N-terminal in the methods and C-terminal in the results; source: E. coli BL21 (DE3), purified
B7: MiD51^133-463 nucleotide binding site mutant (NBM, H201D/R342E/K368E) (domain or fragment, human, UniProt Q9NQG6-1 133-463, looked up)
chain: B4 chain with H69D, R210E, K236E
notes: source: E. coli BL21 (DE3), purified
B8: MiD51^133-463 C165S (domain or fragment, human, UniProt Q9NQG6-1 133-463, looked up)
chain: B4 chain with C33S
notes: as for B7
B9: MiD51^133-463 supposed dimer surface mutant (SDM, R169A/R182A/D183A/Q212A/N213A) (domain or fragment, human, UniProt Q9NQG6-1 133-463, looked up)
chain: B4 chain with R37A, R50A, D51A, Q80A, N81A
notes: as for B7

Columns and labels:
[1] = target: the molecule itself; assay: SEC; Superdex 200 PC 3.2/20; purified Drp1 and Drp1 mutants
[2] = target: B5; assay: pull-down; GST-fused MiD51^133-463 or mutants on Glutathione Sepharose 4B, equal molar Drp1, 3 h at 4°C; 20 mM HEPES pH 7.5, 150 mM NaCl, 1% Triton X-100, 1 mM MgCl2; SDS-PAGE, Coomassie staining; no nucleotide; details: both partners purified
[3] = target: B3; assay: as above; details: both partners purified
[4] = target: T1, Drp1 G350D (UniProt O00429-4 1-699, G350D); assay: as above; details: both partners purified
T1 construct: Drp1, GenBank NM_005690; source: E. coli Rosseta (DE3), purified (Ni-NTA, anion exchange, size-exclusion chromatography)

[5] = target: T2, Drp1 A395D (UniProt O00429-4 1-699, A395D); assay: as above; details: both partners purified
T2 construct: Drp1, GenBank NM_005690; source: E. coli Rosseta (DE3), purified (Ni-NTA, anion exchange, size-exclusion chromatography)

[6] = target: T3, Drp1 G350D/A395D (UniProt O00429-4 1-699, G350D | A395D); assay: as above; details: both partners purified
T3 construct: Drp1, GenBank NM_005690; source: E. coli Rosseta (DE3), purified (Ni-NTA, anion exchange, size-exclusion chromatography)

[7] = target: T4, Drp1 G350D/AAAA (UniProt O00429-4 1-699, G350D | 401GPRP404→AAAA); assay: as above; details: both partners purified
T4 construct: Drp1, GenBank NM_005690; source: E. coli Rosseta (DE3), purified (Ni-NTA, anion exchange, size-exclusion chromatography)

[8] = target: T5, Drp1 A395D/AAAA (UniProt O00429-4 1-699, A395D | 401GPRP404→AAAA); assay: as above; details: both partners purified
T5 construct: Drp1, GenBank NM_005690; source: E. coli Rosseta (DE3), purified (Ni-NTA, anion exchange, size-exclusion chromatography)

[9] = target: B2; assay: as above; details: both partners purified
[10] = target: B1; assay: pull-down; GST-MiD51^133-463 on Glutathione Sepharose; MiD51 and Drp1 mixed first, then no nucleotide (apo) or 1 mM GTP, GMP-PNP, GDP-AlFx or GDP in assay and wash buffer; 20 mM HEPES pH 7.5, 150 mM NaCl, 1% Triton X-100, 1 mM MgCl2; Coomassie staining; details: both partners purified
[11] = target: T6, Drp1 AAAA mutant (401GPRP404→AAAA) (UniProt O00429-4 1-699, 401GPRP404→AAAA); assay: as above; details: both partners purified
T6 construct: Drp1, GenBank NM_005690; source: E. coli Rosseta (DE3), purified (Ni-NTA, anion exchange, size-exclusion chromatography)

[12] = target: the molecule itself; assay: non-reducing SDS-PAGE; purified MiD51^133-463 in the air; time course, dimer quantified every twenty-four hours; wild type and mutants compared

Binder: B1
binding result [1]: binds

Binder: B2
binding result [1]: binds

Binder: B3
binding result [1]: binds

Binder: B4
binding result [2]: binds
binding result [3]: binds
binding result [4]: binds
binding result [5]: binds
binding result [6]: binds
binding result [7]: binds
binding result [8]: binds
binding result [9]: binds
binding result [10]: binds
binding result [11]: binds

Binder: B5
binding result [1]: binds

Binder: B6
stoichiometry N [12]: 2

Binder: B7
binding result [12]: binds

Binder: B8
binding result [12]: binds

Binder: B9
binding result [12]: binds
